Where two headings read alike, the source gives them in different places. Square brackets hold non-standard residues; d marks the D form. Peptide text beside a SMILES is read from it. * marks the point of attachment. Dolaproine = CO[C@@H]([C@@H]1CCCN1)[C@@H](C)C(=O)O; Dil = CC[C@H](C)[C@H](NC)[C@@H](CC(=O)O)OC; X1 = C[C@@H](N*)[C@@H](O)c1ccccc1; NMeV = CN[C@H](C(=O)O)C(C)C
Key:
[1] = test system: NCI-H1781 cells; test: In vitro cytotoxicity assay against nectin-4-expressing cell line NCI-H1781; type: cell-based; conditions: for IC50: NCI-H1781 cells, 5 days incubation, CellTiter-Glo viability, read-out: Absolute IC50
Description: Cell lines were plated on Day −1 in 96-well plates (Corning #3603) at a density of 4×10^3 cells/well in 100 μL of growth media and cultured overnight. On Day 0, serial dilution of test samples was performed in growth media at 6× the final concentration and 20 μL was added to the cells. After incubation at 37° C. with 5% CO2 for 5 days, viability was measured using Promega CellTiter-Glo® according to the manufacturer's recommendations.
Methods: Free payloads (MMAE and camptothecin) and nectin-4 ADCs carrying either MMAE, camptothecin, or maytansine were produced and tested in an in vitro cytotoxicity assay against the nectin-4-expressing cell line, NCI-H1781 (FIG. 1).

[2] = 10 mg/kg weekly for four doses; cited from earlier work
[3] = test system: Male Sprague-Dawley rats; test: Non-GLP rat toxicology study of nectin-4 ADCs; type: in vivo; conditions: 4 doses
Description: (§1) Male Sprague-Dawley rats (8-9 wk old at study start, 5 animals/group) were dosed intravenously with either vehicle alone or with nectin-4 conjugates made using antibodies carrying the variable regions of the rat cross-reactive antibody, enfortumab. The tested ADCs were nectin-4 vedotin (dosed at 10 mg/kg), and nectin-4 CH1/CT RED-106 (dosed at either 10 or 20 mg/kg). Dosing occurred weekly for a total of 4 doses (days 1, 8, 15, and 22). […] Body weights were recorded four times/week. Blood was collected from all animals for clinical pathology on days 5, 12, 19, and 26, and for toxicokinetic analysis at 8 h and days 4 and 7 post-dose (for all doses). Clinical observations were conducted daily.
Methods: Rat cross-reactive nectin-4 ADCs carrying either RED-106 or vedotin linker-payloads were prepared (DAR depicted in FIGS. 8A-8D) and tested in a rat toxicity study.

[4] = Toxicokinetic analysis of rat plasma samples (total antibody and total ADC ELISA); type: in vivo; conditions: repeat dose toxicity study, listed as RED-106 conjugate
Description: as §1
Methods: Total antibody and total ADC concentrations were quantified by ELISA as previously described and diagrammed in the figure. For total antibody, conjugates were captured with an anti-human IgG-specific antibody and detected with an HRP-conjugated anti-human Fc-specific antibody. For total ADC, conjugates were captured with an anti-human Fab-specific antibody and detected with a mouse anti-maytansine primary antibody, followed by an HRP-conjugated anti-mouse IgG-subclass 1-specific secondary antibody. Bound secondary antibody was detected using Ultra TMB One-Step ELISA substrate (Thermo Fisher). […] Data were analyzed using GraphPad Prism and Microsoft Excel software.

[5] = preclinical and clinical effects; cited from earlier work

With `N.N.[Cl][Pt][Cl]` [Cisplatin] the IC50 [1] was 230 nM.

`CC[C@H](C)[C@@H]([C@@H](CC(=O)N1CCC[C@H]1[C@H](OC)[C@@H](C)C(=O)N[C@H](C)[C@@H](O)c1ccccc1)OC)N(C)C(=O)[C@@H](NC(=O)[C@@H](NC)C(C)C)C(C)C` [Free MMAE, monomethyl auristatin E] (H-[NMeV]V[Dil][Dolaproine]-X1) showed an IC50 [1] of 0.3 nM.

In the case of “nectin-4 vedotin: nectin-4 conjugate with enfortumab variable regions, untagged antibody conjugated with maleimide-valcit-MMAE [reference compound]”, the “Toxicity noted in previous reports” value [2] is given as “fur and skin toxicity and mortality”, the “Clinical signs of toxicity in fur and skin” value ([3]; 10 mg/kg i.v. weekly) is given as “all animals exhibited clinical signs of toxicity in fur and skin” and the “Animals euthanized in distress” value ([3]; 10 mg/kg i.v. weekly, 5 animals/group) is given as 1 animal.

With `CC[C@@]1(O)C(=O)OCc2c1cc1n(c2=O)Cc2cc3ccccc3nc2-1` [Free Camptothecin, camptothecin] the IC50 ([1]; 120 h) was 1 nM.

With “Nectin-4 CH1/CT RED-106: nectin-4 ADC with variable regions of enfortumab, CH1/CT aldehyde-tagged, carrying RED-106 maytansine linker-payload” the Mortality ([3]; 10 or 20 mg/kg i.v. weekly) was “no mortalities”, the “Signs of fur/skin toxicity compared with vedotin conjugate” value ([3]; 10 or 20 mg/kg i.v. weekly) was “fewer signs of fur/skin toxicity” and the “In vivo stability of the conjugate compared with the vedotin ADC” value [4] was “improved in vivo stability”. The IC50 [1] was 1 nM and the “In vitro potency of RED-106 conjugate compared with MMAE conjugate” value ([1]; NCI-H1781 target cell line) was “similar”.

B1: DS-1062 (conjugate, chains of the INN, looked up)
VH: QVQLVQSGAEVKKPGASVKVSCKASGYTFTTAGMQWVRQAPGQGLEWMGWINTHSGVPKYAEDFKGRVTISADTSTSTAYLQLSSLKSEDTAVYYCARSGFGSSYWYFDVWGQGTLVTVSS
VL: DIQMTQSPSSLSASVGDRVTITCKASQDVSTAVAWYQQKPGKAPKLLIYSASYRYTGVPSRFSGSGSGTDFTLTISSLQPEDFAVYYCQQHYITPLTFGQGTKLEIK
modifications: deruxtecan payload
For B1, the “Toxicity noted in previous reports” value [5] is listed as “skin and mucosal toxicity”.

Source: US20240325556A1, “Methods of Using Antibody-Drug-Conjugates” (priority 2021, published 2024)
